# Measurements reported in publication PMC8909805, “Anticancer Activity of (S)-5-Chloro-3-((3,5-dimethylphenyl)sulfonyl)-N-(1-oxo-1-((pyridin-4-ylmethyl)amino)propan-2-yl)-1H-indole-2-carboxamide (RS4690), a New Dishevelled 1 Inhibitor” (Cancers, 2022).
# B1: GFP-tagged DVL-1 (natural protein)
# chain: MAETKIIYHMDEEETPYLVKLPVAPERVTLADFKNVLSNRPVHAYKFFFKSMDQDFGVVKEEIFDDNAKLPCFNGRVVSWLVLAEGAHSDAGSQGTDSHTDLPPPLERTGGIGDSRPPSFHPNVASSRDGMDNETGTESMVSHRRERARRRNREEAARTNGHPRGDRRRDVGLPPDSASTALSSELESSSFVDSDEDGSTSRLSSSTEQSTSSRLIRKHKRRRRKQRLRQADRASSFSSITDSTMSLNIVTVTLNMERHHFLGISIVGQSNDRGDGGIYIGSIMKGGAVAADGRIEPGDMLLQVNDVNFENMSNDDAVRVLREIVSQTGPISLTVAKCWDPTPRSYFTVPRADPVRPIDPAAWLSHTAALTGALPRYGTSPCSSAVTRTSSSSLTSSVPGAPQLEEAPLTVKSDMSAVVRVMQLPDSGLEIRDRMWLKITIANAVIGADVVDWLYTHVEGFKERREARKYASSLLKHGFLRHTVNKITFSEQCYYVFGDLCSNLATLNLNSGSSGTSDQDTLAPLPHPAAPWPLGQGYPYQYPGPPPCFPPAYQDPGFSYGSGSTGSQQSEGSKSSGSTRSSRRAPGREKERRAAGAGGSGSESDHTAPSGVGSSWRERPAGQLSRGSSPRSQASATAPGLPPPHPTTKAYTVVGGPPGGPPVRELAAVPPELTGSRQSFQKAMGNPCEFFVDIM
# What was measured:
# DVL1 binding to FZD4 = target: T1, DVL1 binding to FZD4 (Homo sapiens, UniProt O14640); experiment: Inhibition of DVL1 (DVL-GFP) recruitment by FZD4 at the plasma membrane of HEK293 cells; format: cell-based; settings: HEK293 cells co-transfected with HA-FZD4 and GFP-DVL-1; 24 h treatment; read-out: EC50 ± SD DVL1 Binding Inhibition
# T1 construct: host or cells: HEK293
# T1 sequence (O14640 1-695): B1 chain
# Method: HEK293 cells were seeded in 96-well tissue culture plates at a density of 5 × 10 ^3/well. After 16–24 h seeding, cells were co-transfected with HA-FZD4-wt (0.04 µg/well) and GFP-tagged DVL-1 (0.04 µg/well) using PEI (0.25 µL/well) in a final volume of 100 µL/well. After 24 h of transfection, the medium was replaced and supplemented with the indicated compounds diluted in culture medium. After 24 h of treatment, cells were fixed in 3.7% formaldehyde freshly diluted in PBS for 30 min at RT, quenched with 0.1 M glycine/PBS for 30 min at RT, and washed with PBS. Samples were observed under a Leica confocal fluorescent microscope. Inhibition of DVL recruitment was measured by counting the percentage of cells losing GFP-DVL-1 localization on the PM. Experiments were performed in triplicate, and the standard deviations are indicated.
# The crucial role played by PDZ domains in the spreading of cellular signals and their aberrant activations in many human diseases makes the PDZ domains very attractive targets for drug discovery. […] To identify new DVL1 inhibitors, we followed a virtual screening approach by fixing as the main filter a pharmacophoric model. We speculated that compound 2, the recently reported inhibitor of NHERF1 PDZ1 domain [26], may be able also to bind the DVL PDZ domain. The activity of compound 2 was assayed in HEK293 cells transiently expressing both HA-tagged-FZD4 (HA-FZD4) and the chimeric construct DVL-GFP. In the absence of HA-FZD4, DVL-GFP is localized in punctate intracellular structures known as signalosomes. In the presence of FZD-4 expression, DVL-GFP is recruited on the PM of the cell showing a drastic change in localization. As previously reported, drugs acting as inhibitors of FZD4/DVL binding reduce the amount of DVL-GFP recruited on the PM. […] Thus, we used the information gained from the binding mode of compound 2 to design a pharmacophore model that would lead to the identification of new DVL1 PDZ binders. At the same time, to better distinguish between the inhibitory activities of DVL1 and NHERF1, we added a new query to the pharmacophore model. Actually, comparing the PDZ structures of the studied proteins, we identified a significant difference. The upper part of the carboxylic binding loop was delimited by Tyr24, Ile79 and Val86 for NHERF1, while we observed Leu12, Val75 and Ile81, respectively, for DVL1. […] This peculiar feature of the DVL1 PDZ was included in our pharmacophore model by adding a hydrophobic query to obtain the required selectivity (Figure S1, Supplementary Materials). […] Thus, for each molecule, we obtained 10 conformations, and all of the proposed binding poses (7000 molecules per 10 conformations) were scored by the fitting to the pharmacophore model. […]
# HA-tagged FZD4wt (human) = HA-tagged FZD4wt (human) (UniProt Q9ULV1)
# Sequence of HA-tagged FZD4wt (human) (Q9ULV1 37-537): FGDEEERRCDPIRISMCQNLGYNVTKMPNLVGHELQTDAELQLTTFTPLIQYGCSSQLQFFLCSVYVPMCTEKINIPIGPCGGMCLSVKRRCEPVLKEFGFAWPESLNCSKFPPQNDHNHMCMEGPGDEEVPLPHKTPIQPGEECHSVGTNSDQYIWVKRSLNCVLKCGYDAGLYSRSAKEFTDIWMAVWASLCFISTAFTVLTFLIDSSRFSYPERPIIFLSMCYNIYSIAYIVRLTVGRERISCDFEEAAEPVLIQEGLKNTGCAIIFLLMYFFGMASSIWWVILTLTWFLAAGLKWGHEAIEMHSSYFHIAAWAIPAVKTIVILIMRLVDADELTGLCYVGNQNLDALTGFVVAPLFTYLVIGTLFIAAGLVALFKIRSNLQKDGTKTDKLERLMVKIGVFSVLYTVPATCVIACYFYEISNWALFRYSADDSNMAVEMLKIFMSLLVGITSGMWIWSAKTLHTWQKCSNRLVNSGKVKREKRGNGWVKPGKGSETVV
molecule,measurement,setting,value
"O=C(Nc1ccc(CO)cc1)c1[nH]c2ccc(Cl)cc2c1Cc1ccccc1 [Compound 2, 3-benzyl-5-chloro-N-(4-(hydroxymethyl)phenyl)-1H-indole-2-carboxamide, reference compound]",EC50,DVL1 binding to FZD4,5.1 ± 0.09 µM
B1,EC50 of the small molecule 2 for inhibition of GFP-DVL-1 recruitment to the plasma membrane by HA-FZD4 in HEK293 cells (percentage of cells losing PM localisation; 'DVL1 Binding Inhibition'),HA-tagged FZD4wt (human),5.1 µM
same,EC50 of the small molecule (R)-1 for inhibition of GFP-DVL-1 recruitment to the plasma membrane by HA-FZD4 in HEK293 cells (percentage of cells losing PM localisation; 'DVL1 Binding Inhibition'),HA-tagged FZD4wt (human),29.5 µM
same,EC50 of the small molecule (S)-1 for inhibition of GFP-DVL-1 recruitment to the plasma membrane by HA-FZD4 in HEK293 cells (percentage of cells losing PM localisation; 'DVL1 Binding Inhibition'),HA-tagged FZD4wt (human),0.49 µM
